Laboratory results reported in paper PMC3641136.

B1: neuronal glycine transporter 2 (GlyT2), wild type (natural protein)
chain: MDCSAPKEMNKPPTNILEATVPGHRDSPRAPRTSPEQDLPAAAPAAAVQPPRVPRSASTGAQTFQSADARACEAQRPGVGFCKLSSPQAQATSAALRDLSEGHSAQANPPSGAAGAGNALHCKIPALRGPEEDENVSVGKGTLEHNNTPAVGWVNMSQSTVVLGTDGIASVLPGSVATTTIPEDEQGDENKARGNWSSKLDFILSMVGYAVGLGNVWRFPYLAFQNGGGAFLIPYLMMLALAGLPIFFLEVSLGQFASQGPVSVWKAIPALQGCGIAMLIISVLIAIYYNVIICYTLFYLFASFVSVLPWGSCNNPWNTPECKDKTKLLLDSCVIGDHPKIQIKNSTFCMTAYPNLTMVNFTSQANKTFVSGSEEYFKYFVLKISAGIEYPGEIRWPLAFCLFLAWVIVYASLAKGIKTSGKVVYFTATFPYVVLVILLIRGVTLPGAGAGIWYFITPKWEKLTDATVWKDAATQIFFSLSAAWGGLITLSSYNKFHNNCYRDTLIVTCTNSATSIFAGFVIFSVIGFMANERKVNIENVADQGPGIAFVVYPEALTRLPLSPFWAIIFFLMLLTLGLDTMFATIETIVTSISDEFPKYLRTHKPVFTLGCCICFFIMGFPMITQGGIYMFQLVDTYAASYALVIIAIFELVGISYVYGLQRFCEDIEMMIGFQPNIFWKVCWAFVTPTILTFILCFSFYQWEPMTYGSYRYPNWSMVLGWLMLACSVIWIPIMFVIKMYLAPGRFIERLKLVCSPQPDWGPFLAQHRGERYKNMIDPLGTSSLGLKLPVKDLELGTQC
modifications: N-glycans on asparagines 345, 355, 360 and 366; the CNX-bound form is the 75 kDa under-glycosylated, EndoH-sensitive precursor

Each molecule was assayed against calnexin (CNX), endogenous in COS7 cells (assay: sequential co-immunoprecipitation (CNX then GlyT2 antibodies), densitometry of fluorograms). Settings: 15 min [35S]methionine/cysteine pulse, 30 min chase, n = 3, parent: est. 100, read off a plot.
For “neuronal glycine transporter 2 (GlyT2), wild type (from UniProt P58295) N1”, the percent of parent was 69 % of wtGlyT2. For “neuronal glycine transporter 2 (GlyT2), wild type (from UniProt P58295) N2”, the percent of parent was 62 % of wtGlyT2. “neuronal glycine transporter 2 (GlyT2), wild type (from UniProt P58295) N3” was tested, and the percent of parent was 72 % of wtGlyT2. “neuronal glycine transporter 2 (GlyT2), wild type (from UniProt P58295) N13” was tested, and the percent of parent was 85 % of wtGlyT2. For “neuronal glycine transporter 2 (GlyT2), wild type (from UniProt P58295) N23”, the percent of parent was 62 % of wtGlyT2. For “neuronal glycine transporter 2 (GlyT2), wild type (from UniProt P58295) N123”, the percent of parent was 35 % of wtGlyT2. “neuronal glycine transporter 2 (GlyT2), wild type (from UniProt P58295) N234” was tested, and the percent of parent was 48 % of wtGlyT2. In the case of “neuronal glycine transporter 2 (GlyT2), wild type (from UniProt P58295) N345D; N355D; N360D; N366D”, the percent of parent is reported as 74 % of wtGlyT2. For “neuronal glycine transporter 2 (GlyT2), wild type (from UniProt P58295) N366D”, the percent of parent was 51 % of wtGlyT2.

The molecules below were run against calnexin (CNX), endogenous in COS7 cells (African green monkey (endogenous in COS7)) (assay: co-IP; COS7 cells pulse-labeled 15 min with [35S]methionine/cysteine and chased; sequential immunoprecipitation with anti-CNX, then anti-GlyT2 antibodies (1% CHAPS); SDS-PAGE, fluorography, densitometry; also after treatment of cells with tunicamycin, castanospermine, deoxynojirimycin, deoxymannojirimycin, kifunensin, or at 45°C). Settings: not given.
In the case of B1, the half-life of the complex (pulse-chase) is reported as 60 min.
